Here are results for 1 molecule from paper PMC3904923, “Pivoting between Calmodulin Lobes Triggered by Calcium in the Kv7.2/Calmodulin Complex” (PLoS ONE, 2014).

What all share (conditions): both partners purified
For assay [1], the target named is T1, dansylated calmodulin (rat, UniProt P0DP30 1-149, dansyl group covalently bound to CaM (position not given)).
T1 construct: calmodulin, rat brain, NM_017326; also called D-CaM; dansyl-CaM
In words: other fluorescence titration; 12.5 nM D-CaM, ligand added incrementally, enhancement of dansyl emission; 25 mM Tris-HCl, 120 mM KCl, 5 mM NaCl, 2 mM MgCl2, 10 mM EGTA, pH 7.4; no free Ca2+; apparent affinity (EC50 of a Hill fit).

Assay [2] addresses T2, CaM C-lobe (residues 79–148) (human, UniProt P0DP23 80-149).
T2 construct: human calmodulin C-lobe, residues 79-148; cDNA from the group of Daniel L. Minor Jr; also called C-domain; CaM 79–148; source: produced as described previously [28], purified
In words: other fluorescence titration; competition: 12.5 nM D-CaM mixed with helix A (65.6 nM) or helix B (42.6 nM), isolated lobe added incrementally; with Ca2+; one site Hill fit, Kd derived assuming 1:1 binding.

In assay [3] the target is T3, CaM N-lobe (residues 1–78) (human, UniProt P0DP23 2-79).
T3 construct: human calmodulin N-lobe, residues 1-78; cDNA from the group of Daniel L. Minor Jr; also called N-domain; CaM 1–78; source: produced as described previously [28], purified
The assay is described as above.

Assay [4] has as its target T2, CaM C-lobe (residues 79–148). Put plainly: other fluorescence titration; competition: 12.5 nM D-CaM mixed with helix A (46.4 nM) or helix B (20.1 nM), isolated lobe added incrementally; no Ca2+; one site Hill fit, Kd derived assuming 1:1 binding.
The target in assay [5] is T3, CaM N-lobe (residues 1–78). Described as above.
Assay [6] concerns the target T1, dansylated calmodulin. Put plainly: other fluorescence titration; 12.5 nM D-CaM, ligand added incrementally, enhancement of dansyl emission; D-CaM binding buffer with 3.9 µM free Ca2+ (9.63 mM Ca2+, 2 mM Mg2+, 10 mM EGTA, pH 7.4); apparent affinity (EC50 of a Hill fit).

B1: Kv7.2 helix A (hA residues G310–T359) (domain or fragment, human, UniProt O43526 310-359, looked up)
chain: GILGSGFALKVQEQHRQKHFEKRRNPAAGLIQSAWRFYATNLSRTDLHST
notes: helix A of human Kv7.2 (KCNQ2) Y15065, residues G310-T359; also called segment A; source: E. coli BL21-DE3, purified (GSH sepharose)
Consider B1, for which the values for the EC50 in assay [1] and in assay [6] were 46.4 nM and 65.6 nM, respectively. In addition, the Kd was determined as 17 nM in assay [2], 267 nM in assay [3], 169 nM in assay [4] and 530 nM in assay [5].
